# Reference: paper PMC7954794 (2021)
# B1: S. cerevisiae Abp1 (full length; SH3 domain 535-592 mutated) / Hua2 (parent complex)
# chain 1: MALEPIDYTTHSREIDAEYLKIVRGSDPDTTWLIISPNAKKEYEPESTGSSFHDFLQLFDETKVQYGLARVSPPGSDVEKIIIIGWCPDSAPLKTRASFAANFAAVANNLFKGYHVQVTARDEDDLDENELLMKISNAAGARYSIQTSSKQQGKASTPPVKKSFTPSKSPAPVSKKEPVKTPSPAPAAKISSRVNDNNDDDDWNEPELKERDFDQAPLKPNQSSYKPIGKIDLQKVIAEEKAKEDPRLVQKPTAAGSKIDPSSDIANLKNESKLKRDSEFNSFLGTTKPPSMTESSLKNDDDKVIKGFRNEKSPAQLWAERKAKQNSGNAETKAEAPKPEVPEDEPEGEPDVKDLKSKFEGLAASEKEEEEMENKFAPPPKKSEPTIISPKPFSKPQEPVKAEEAEQPKTDYKKIGNPLPGMHIEADNEEEPEENDDDWDDDEDEAAQPPLPSRNVASGAPVQKEEPEQEEIAPSLPSRNSIPAPKQEEAPEQAPEEEIEEEAEEAAPQLPSRSSAAPPPPPRRATPEKKPKENPWATAEYDYDAAEDNELTFVENDKIINIEFVDDDWWLGELEKDGSKGLFPSNYVSLGN
# chain 2: MQQTKFGKMYLDHDSVVEYSEDEIVEADRITLGYKKRLSMIENQMRHLLEDFSLDVQQIEPILADLQKYYDAFLQLLQKRNKSLQCKRSTHQPVPSPMNSQTSTNAKVNLSGKLMKFQLNSVQKFDEENILRILQNKIEFEHYFQIDKGKKQKVLLLAVYQCLNGPTRLHKVLNIEGIIHNNSIRTILGKQVSSSKWTVFLYDVKLVLLAHRQDVPNLETSKMIVRYGDLFPCALYFKDHTAY
# Variants of: B1
# Assay: DHFR protein-fragment complementation in yeast (Abp1-DHFR F[1,2] x partner-DHFR F[3]), deep mutational scanning, second methotrexate selection vs reference; S. cerevisiae, DHFR-PCA selection in liquid with methotrexate at 30 C, two 72 h selections (the score uses the second); reference = the pre-selection culture
row,Variant,screen value
1,chain 1 D544K,"1.68 DMS score: mean over two replicates of log2(f_test/f_ref + 0.5)/ln 2, minus the synonymous-codon median (not a log2 …"
2,chain 1 D544H,"0.503 DMS score: mean over two replicates of log2(f_test/f_ref + 0.5)/ln 2, minus the synonymous-codon median (not a log2 …"
3,chain 1 D544T,"0.786 DMS score: mean over two replicates of log2(f_test/f_ref + 0.5)/ln 2, minus the synonymous-codon median (not a log2 …"
4,chain 1 D544P,"-0.888 DMS score: mean over two replicates of log2(f_test/f_ref + 0.5)/ln 2, minus the synonymous-codon median (not a log2 …"
5,chain 1 D544F,"0.632 DMS score: mean over two replicates of log2(f_test/f_ref + 0.5)/ln 2, minus the synonymous-codon median (not a log2 …"
6,chain 1 D544W,"0.0871 DMS score: mean over two replicates of log2(f_test/f_ref + 0.5)/ln 2, minus the synonymous-codon median (not a log2 …"
7,chain 1 A545E,"-0.673 DMS score: mean over two replicates of log2(f_test/f_ref + 0.5)/ln 2, minus the synonymous-codon median (not a log2 …"
8,chain 1 K558E,"-0.942 DMS score: mean over two replicates of log2(f_test/f_ref + 0.5)/ln 2, minus the synonymous-codon median (not a log2 …"
9,chain 1 K558L,"0.204 DMS score: mean over two replicates of log2(f_test/f_ref + 0.5)/ln 2, minus the synonymous-codon median (not a log2 …"
10,chain 1 K558C,"-0.507 DMS score: mean over two replicates of log2(f_test/f_ref + 0.5)/ln 2, minus the synonymous-codon median (not a log2 …"
11,chain 1 K558Q,"-0.388 DMS score: mean over two replicates of log2(f_test/f_ref + 0.5)/ln 2, minus the synonymous-codon median (not a log2 …"
12,chain 1 L571A,"-0.0753 DMS score: mean over two replicates of log2(f_test/f_ref + 0.5)/ln 2, minus the synonymous-codon median (not a log2 …"
13,chain 1 V554D,"0.269 DMS score: mean over two replicates of log2(f_test/f_ref + 0.5)/ln 2, minus the synonymous-codon median (not a log2 …"
14,chain 1 V554M,"-0.0016 DMS score: mean over two replicates of log2(f_test/f_ref + 0.5)/ln 2, minus the synonymous-codon median (not a log2 …"
15,chain 1 V554N,"0.128 DMS score: mean over two replicates of log2(f_test/f_ref + 0.5)/ln 2, minus the synonymous-codon median (not a log2 …"
16,chain 1 V554E,"0.602 DMS score: mean over two replicates of log2(f_test/f_ref + 0.5)/ln 2, minus the synonymous-codon median (not a log2 …"
17,chain 1 V554G,"0.246 DMS score: mean over two replicates of log2(f_test/f_ref + 0.5)/ln 2, minus the synonymous-codon median (not a log2 …"
18,chain 1 V554F,"0.446 DMS score: mean over two replicates of log2(f_test/f_ref + 0.5)/ln 2, minus the synonymous-codon median (not a log2 …"
19,chain 1 F553L,"0.618 DMS score: mean over two replicates of log2(f_test/f_ref + 0.5)/ln 2, minus the synonymous-codon median (not a log2 …"
20,chain 1 D542N,"0.0633 DMS score: mean over two replicates of log2(f_test/f_ref + 0.5)/ln 2, minus the synonymous-codon median (not a log2 …"
21,chain 1 D542F,"-0.772 DMS score: mean over two replicates of log2(f_test/f_ref + 0.5)/ln 2, minus the synonymous-codon median (not a log2 …"
22,chain 1 D542K,"-0.627 DMS score: mean over two replicates of log2(f_test/f_ref + 0.5)/ln 2, minus the synonymous-codon median (not a log2 …"
23,chain 1 Y541C,"-1.21 DMS score: mean over two replicates of log2(f_test/f_ref + 0.5)/ln 2, minus the synonymous-codon median (not a log2 …"
24,chain 1 Y541D,"-1.13 DMS score: mean over two replicates of log2(f_test/f_ref + 0.5)/ln 2, minus the synonymous-codon median (not a log2 …"
25,chain 1 Y541S,"-1.59 DMS score: mean over two replicates of log2(f_test/f_ref + 0.5)/ln 2, minus the synonymous-codon median (not a log2 …"

row,Variant,screen value
1,chain 1 Y541K,"-2.77 DMS score: mean over two replicates of log2(f_test/f_ref + 0.5)/ln 2, minus the synonymous-codon median (not a log2 …"
2,chain 1 Y541V,"-1.72 DMS score: mean over two replicates of log2(f_test/f_ref + 0.5)/ln 2, minus the synonymous-codon median (not a log2 …"
3,chain 1 Y541F,"0.0303 DMS score: mean over two replicates of log2(f_test/f_ref + 0.5)/ln 2, minus the synonymous-codon median (not a log2 …"
4,chain 1 Y541L,"-2.57 DMS score: mean over two replicates of log2(f_test/f_ref + 0.5)/ln 2, minus the synonymous-codon median (not a log2 …"
5,chain 1 E573T,"0.75 DMS score: mean over two replicates of log2(f_test/f_ref + 0.5)/ln 2, minus the synonymous-codon median (not a log2 …"
6,chain 1 E573I,"-0.283 DMS score: mean over two replicates of log2(f_test/f_ref + 0.5)/ln 2, minus the synonymous-codon median (not a log2 …"
7,chain 1 E573V,"0.415 DMS score: mean over two replicates of log2(f_test/f_ref + 0.5)/ln 2, minus the synonymous-codon median (not a log2 …"
8,chain 1 E573Q,"-0.0881 DMS score: mean over two replicates of log2(f_test/f_ref + 0.5)/ln 2, minus the synonymous-codon median (not a log2 …"
9,chain 1 E547K,"-2.17 DMS score: mean over two replicates of log2(f_test/f_ref + 0.5)/ln 2, minus the synonymous-codon median (not a log2 …"
10,chain 1 E547H,"-2.24 DMS score: mean over two replicates of log2(f_test/f_ref + 0.5)/ln 2, minus the synonymous-codon median (not a log2 …"
11,chain 1 E547S,"-2.1 DMS score: mean over two replicates of log2(f_test/f_ref + 0.5)/ln 2, minus the synonymous-codon median (not a log2 …"
12,chain 1 E547Q,"-2.26 DMS score: mean over two replicates of log2(f_test/f_ref + 0.5)/ln 2, minus the synonymous-codon median (not a log2 …"
13,chain 1 T538A,"-0.987 DMS score: mean over two replicates of log2(f_test/f_ref + 0.5)/ln 2, minus the synonymous-codon median (not a log2 …"
14,chain 1 T538L,"0.677 DMS score: mean over two replicates of log2(f_test/f_ref + 0.5)/ln 2, minus the synonymous-codon median (not a log2 …"
15,chain 1 T538I,"0.252 DMS score: mean over two replicates of log2(f_test/f_ref + 0.5)/ln 2, minus the synonymous-codon median (not a log2 …"
16,chain 1 T538N,"-0.471 DMS score: mean over two replicates of log2(f_test/f_ref + 0.5)/ln 2, minus the synonymous-codon median (not a log2 …"
17,chain 1 Y587I,"-0.578 DMS score: mean over two replicates of log2(f_test/f_ref + 0.5)/ln 2, minus the synonymous-codon median (not a log2 …"
18,chain 1 Y587H,"-0.477 DMS score: mean over two replicates of log2(f_test/f_ref + 0.5)/ln 2, minus the synonymous-codon median (not a log2 …"
19,chain 1 I562L,"-0.495 DMS score: mean over two replicates of log2(f_test/f_ref + 0.5)/ln 2, minus the synonymous-codon median (not a log2 …"
20,chain 1 T552K,"-0.621 DMS score: mean over two replicates of log2(f_test/f_ref + 0.5)/ln 2, minus the synonymous-codon median (not a log2 …"
21,chain 1 G591V,"-0.0626 DMS score: mean over two replicates of log2(f_test/f_ref + 0.5)/ln 2, minus the synonymous-codon median (not a log2 …"
22,chain 1 G591H,"-0.407 DMS score: mean over two replicates of log2(f_test/f_ref + 0.5)/ln 2, minus the synonymous-codon median (not a log2 …"
23,chain 1 G591D,"-0.157 DMS score: mean over two replicates of log2(f_test/f_ref + 0.5)/ln 2, minus the synonymous-codon median (not a log2 …"
24,chain 1 G591S,"0.409 DMS score: mean over two replicates of log2(f_test/f_ref + 0.5)/ln 2, minus the synonymous-codon median (not a log2 …"
25,chain 1 G591C,"-0.973 DMS score: mean over two replicates of log2(f_test/f_ref + 0.5)/ln 2, minus the synonymous-codon median (not a log2 …"

row,Variant,screen value
1,chain 1 G591Y,"-0.189 DMS score: mean over two replicates of log2(f_test/f_ref + 0.5)/ln 2, minus the synonymous-codon median (not a log2 …"
2,chain 1 G591I,"0.474 DMS score: mean over two replicates of log2(f_test/f_ref + 0.5)/ln 2, minus the synonymous-codon median (not a log2 …"
3,chain 1 E540I,"-2.91 DMS score: mean over two replicates of log2(f_test/f_ref + 0.5)/ln 2, minus the synonymous-codon median (not a log2 …"
4,chain 1 E540H,"-2.15 DMS score: mean over two replicates of log2(f_test/f_ref + 0.5)/ln 2, minus the synonymous-codon median (not a log2 …"
5,chain 1 E540K,"-2.41 DMS score: mean over two replicates of log2(f_test/f_ref + 0.5)/ln 2, minus the synonymous-codon median (not a log2 …"
6,chain 1 E540M,"-2.49 DMS score: mean over two replicates of log2(f_test/f_ref + 0.5)/ln 2, minus the synonymous-codon median (not a log2 …"
7,chain 1 D548I,"-0.724 DMS score: mean over two replicates of log2(f_test/f_ref + 0.5)/ln 2, minus the synonymous-codon median (not a log2 …"
8,chain 1 D548T,"0.434 DMS score: mean over two replicates of log2(f_test/f_ref + 0.5)/ln 2, minus the synonymous-codon median (not a log2 …"
9,chain 1 D548N,"0.0071 DMS score: mean over two replicates of log2(f_test/f_ref + 0.5)/ln 2, minus the synonymous-codon median (not a log2 …"
10,chain 1 N586C,"2.04 DMS score: mean over two replicates of log2(f_test/f_ref + 0.5)/ln 2, minus the synonymous-codon median (not a log2 …"
11,chain 1 N586Q,"-1.03 DMS score: mean over two replicates of log2(f_test/f_ref + 0.5)/ln 2, minus the synonymous-codon median (not a log2 …"
12,chain 1 N586V,"1.04 DMS score: mean over two replicates of log2(f_test/f_ref + 0.5)/ln 2, minus the synonymous-codon median (not a log2 …"
13,chain 1 N586S,"2 DMS score: mean over two replicates of log2(f_test/f_ref + 0.5)/ln 2, minus the synonymous-codon median (not a log2 …"
14,chain 1 N586T,"1.83 DMS score: mean over two replicates of log2(f_test/f_ref + 0.5)/ln 2, minus the synonymous-codon median (not a log2 …"
15,chain 1 N586G,"2.37 DMS score: mean over two replicates of log2(f_test/f_ref + 0.5)/ln 2, minus the synonymous-codon median (not a log2 …"
16,chain 1 N586A,"1.82 DMS score: mean over two replicates of log2(f_test/f_ref + 0.5)/ln 2, minus the synonymous-codon median (not a log2 …"
17,chain 1 S585T,"-0.67 DMS score: mean over two replicates of log2(f_test/f_ref + 0.5)/ln 2, minus the synonymous-codon median (not a log2 …"
18,chain 1 S585C,"1.03 DMS score: mean over two replicates of log2(f_test/f_ref + 0.5)/ln 2, minus the synonymous-codon median (not a log2 …"
19,chain 1 S585G,"-1.85 DMS score: mean over two replicates of log2(f_test/f_ref + 0.5)/ln 2, minus the synonymous-codon median (not a log2 …"
20,chain 1 S585M,"0.746 DMS score: mean over two replicates of log2(f_test/f_ref + 0.5)/ln 2, minus the synonymous-codon median (not a log2 …"
21,chain 1 S585P,"-2.72 DMS score: mean over two replicates of log2(f_test/f_ref + 0.5)/ln 2, minus the synonymous-codon median (not a log2 …"
22,chain 1 E563N,"-0.99 DMS score: mean over two replicates of log2(f_test/f_ref + 0.5)/ln 2, minus the synonymous-codon median (not a log2 …"
23,chain 1 E563R,"-1.39 DMS score: mean over two replicates of log2(f_test/f_ref + 0.5)/ln 2, minus the synonymous-codon median (not a log2 …"
24,chain 1 L582K,"-2.94 DMS score: mean over two replicates of log2(f_test/f_ref + 0.5)/ln 2, minus the synonymous-codon median (not a log2 …"
25,chain 1 L551I,"-0.106 DMS score: mean over two replicates of log2(f_test/f_ref + 0.5)/ln 2, minus the synonymous-codon median (not a log2 …"
